# Assay results taken from patent US20240101673A1 (MOZART THERAPEUTICS, published 2024).
# B1: KIR2DLxCD8 bispecific (bispecific antibody)
# chain 1: QVQLVQSGAEVKKPGSSVKVSCKASGGTFSFYAISWVRQAPGQGLEWMGGFIPIFGAANYAQKFQGRVTITADESTSTAYMELSSLRSDDTAVYYCARIPSGSYYYDYDMDVWGQGTTVTVSS
# chain 2: EIVLTQSPVTLSLSPGERATLSCRASQSVSSYLAWYQQKPGQAPRLLIYDASNRATGIPARFSGSGSGTDFTLTISSLEPEDFAVYYCQQRSNWMYTFGQGTKLEIK
# chain 3: EVQLVESGGGLVQPGGSLRLSCAASGFNIKDTYIHFVRQAPGKGLEWIGRIDPANDNTLYASKFQGKATISADTSKNTAYLQMNSLRAEDTAVYYCGRGYGYYVFDHWGQGTLVTVSS
# chain 4: DVQITQSPSSLSASVGDRVTITCRTSRSISQYLAWYQQKPGKVPKLLIYSGSTLQSGVPSRFSGSGSGTDFTLTISSLQPEDVATYYCQQHNENPLTFGGGTKVEIK
# B2: Mb1b IgG1 r mAb (antibody, V domains shown)
# VH: EVQLVESGGGLVQPGGSLRLSCAASGFNIKDTYIHFVRQAPGKGLEWIGRIDPANDNTLYASKFQGKATISADTSKNTAYLQMNSLRAEDTAVYYCGRGYGYYVFDHWGQGTLVTVSS
# VL: DVQITQSPSSLSASVGDRVTITCRTSRSISQYLAWYQQKPGKVPKLLIYSGSTLQSGVPSRFSGSGSGTDFTLTISSLQPEDVATYYCQQHNENPLTFGGGTKVEIK
# notes: also called Mb1b parental antibody; anti-CD8alpha Mb1 b IgG1r mAb
# B3: IPH2102/Mb1b CrossMAb (bispecific antibody)
# chain 1: QVQLVQSGAEVKKPGSSVKVSCKASGGTFSFYAISWVRQAPGQGLEWMGGFIPIFGAANYAQKFQGRVTITADESTSTAYMELSSLRSDDTAVYYCARIPSGSYYYDYDMDVWGQGTTVTVSS
# chain 2: EIVLTQSPVTLSLSPGERATLSCRASQSVSSYLAWYQQKPGQAPRLLIYDASNRATGIPARFSGSGSGTDFTLTISSLEPEDFAVYYCQQRSNWMYTFGQGTKLEIK
# chain 3: EVQLVESGGGLVQPGGSLRLSCAASGFNIKDTYIHFVRQAPGKGLEWIGRIDPANDNTLYASKFQGKATISADTSKNTAYLQMNSLRAEDTAVYYCGRGYGYYVFDHWGQGTLVTVSS
# chain 4: DVQITQSPSSLSASVGDRVTITCRTSRSISQYLAWYQQKPGKVPKLLIYSGSTLQSGVPSRFSGSGSGTDFTLTISSLQPEDVATYYCQQHNENPLTFGGGTKVEIK
# Key:
# CD8 [1] = target: CD8 (Homo sapiens); assay: titration on CD8+ T cells, gMFI (flow cytometry)
# CD8 [2] = target: CD8 (Homo sapiens); assay: titration on the CXCR3 CD39 CD8 T cell subset, gMFI (flow cytometry)
# [3] = target: T1, CD8alpha tagged with a hexahistidine peptide (UniProt P01732 22-182, limits assumed); assay: BLI (Octet), antibody captured on AHC anti-human Fc biosensors, analyte 6.25-200 nM
# T1 construct: Soluble analyte in the Octet assays; not shown: hexahistidine tag (HHHHHH)
# Method: The affinities of the parental antibodies anti-KIR2DL1/L2/L3 IPH2102 IgG1 r mAb and anti-CD8alpha Mb1 b IgG1r mAb were also analyzed. For kinetic analysis, the parental antibodies were separately captured to AHC (anti-human Fc) biosensors using a load concentration of 1.25 ug/ml. For IPH2102 IgG1r mAb, the KIR2DL1, or KIR2DL3 analytes ranged from 6.25 nM to 200 nM. Analyte binding following capture was analyzed first for association of KIR2DL1 or KIR2DL3 followed by the dissociation of each analyte independently. Likewise, for the Mb1b IgG1r mAb, the CD8alpha analyte ranged from 6.25 nM to 200 nM. Analyte binding following capture was analyzed first for association followed by the dissociation of CD8alpha.
# [4] = target: T2, KIR2DL1 tagged with a hexahistidine peptide (UniProt P43626 22-245, limits assumed); assay: BLI (Octet), CrossMAb captured on AHC anti-human Fc biosensors, analyte 6.25-200 nM
# T2 construct: Soluble analyte in the Octet assays; also called KIRDL1; not shown: hexahistidine tag (HHHHHH)
# [5] = target: T3, KIR2DL3 tagged with a hexahistidine peptide (UniProt P43628 22-245, limits assumed); assay: as above
# T3 construct: Soluble analyte in the Octet assays; not shown: hexahistidine tag (HHHHHH)
# [6] = target: T1, CD8alpha tagged with a hexahistidine …; assay: as above
# T1 sequence (P01732 22-182 limits assumed): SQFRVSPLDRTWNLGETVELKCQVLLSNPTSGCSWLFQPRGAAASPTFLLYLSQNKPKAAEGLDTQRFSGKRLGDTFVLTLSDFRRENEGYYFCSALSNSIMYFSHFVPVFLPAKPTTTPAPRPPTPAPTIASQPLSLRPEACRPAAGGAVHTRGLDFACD
# Chain of CD8 (Homo sapiens) (chain, as listed by the source): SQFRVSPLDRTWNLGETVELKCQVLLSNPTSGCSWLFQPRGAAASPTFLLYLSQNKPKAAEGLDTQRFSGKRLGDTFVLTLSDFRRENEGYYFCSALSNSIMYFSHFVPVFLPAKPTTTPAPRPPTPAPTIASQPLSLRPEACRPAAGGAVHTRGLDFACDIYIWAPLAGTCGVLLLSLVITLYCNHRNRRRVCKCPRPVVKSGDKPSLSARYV
# T2 sequence (P43626 22-245 limits assumed): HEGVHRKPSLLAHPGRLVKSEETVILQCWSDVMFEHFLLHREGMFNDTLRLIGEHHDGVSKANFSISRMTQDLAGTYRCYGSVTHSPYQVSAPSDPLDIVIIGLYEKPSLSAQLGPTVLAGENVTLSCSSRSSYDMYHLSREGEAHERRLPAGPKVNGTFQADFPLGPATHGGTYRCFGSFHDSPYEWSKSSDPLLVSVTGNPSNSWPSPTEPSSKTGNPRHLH
# T3 sequence (P43628 22-245 limits assumed): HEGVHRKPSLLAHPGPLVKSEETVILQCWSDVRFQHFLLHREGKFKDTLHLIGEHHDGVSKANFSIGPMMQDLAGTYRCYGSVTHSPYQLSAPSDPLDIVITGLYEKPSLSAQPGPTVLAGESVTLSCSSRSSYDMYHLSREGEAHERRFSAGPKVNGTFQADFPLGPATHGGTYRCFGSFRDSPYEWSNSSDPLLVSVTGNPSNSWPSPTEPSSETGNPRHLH
binder,measurement,setting,value
B1,EC50 (read off the curve),CD8 [1],~40 nM
same,EC50 (read off the curve),CD8 [2],~100 nM
B2,Kd,[3],2.6 nM
B3,Kd,[4],1.52 nM
same,Kd,[5],0.88 nM
same,Kd,[6],2.07 nM
